# Experimental data reported in IntAct's records for PubMed 9425168.
# B1: Focal adhesion kinase 1 (Gallus gallus (Chicken)), Q00944 (parent)
# chain: MAAAYLDPNLNHTPSSSAKTHLGTGMERSPGAMERVLKVFHYFENSSEPTTWASIIRHGDATDVRGIIQKIVDCHKVKNVACYGLRLSHLQSEEVHWLHLDMGVSNVREKFELAHPPEEWKYELRIRYLPKGFLNQFTEDKPTLNFFYQQVKNDYMLEIADQVDQEIALKLGCLEIRRSYGEMRGNALEKKSNYEVLEKDVGLRRFFPKSLLDSVKAKTLRKLIQQTFRQFANLNREESILKFFEILSPVYRFDKECFKCALGSSWIISVELAIGPEEGISYLTDKGANPTHLADFNQVQTIQYSNSEDKDRKGMLQLKIAGAPEPLTVTAPSLTIAENMADLIDGYCRLVNGATQSFIIRPQKEGERALPSIPKLANNEKQGVRSHTVSVSETDDYAEIIDEEDTYTMPSTRDYEIQRERIELGRCIGEGQFGDVHQGIYMSPENPAMAVAIKTCKNCTSDSVREKFLQEALTMRQFDHPHIVKLIGVITENPVWIIMELCTLGELRSFLQVRKFSLDLASLILYAYQLSTALAYLESKRFVHRDIAARNVLVSATDCVKLGDFGLSRYMEDSTYYKASKGKLPIKWMAPESINFRRFTSASDVWMFGVCMWEILMHGVKPFQGVKNNDVIGRIENGERLPMPPNCPPTLYSLMTKCWAYDPSRRPRFTELKAQLSTILEEEKLQQEERMRMESRRQVTVSWDSGGSDEAPPKPSRPGYPSPRSSEGFYPSPQHMVQPNHYQVSGYSGSHGIPAMAGSIYPGQASLLDQTDSWNHRPQEVSAWQPNMEDSGTLDVRGMGQVLPTHLMEERLIRQQQEMEEDQRWLEKEERFLVMKPDVRLSRGSIEREDGGLQGPAGNQHIYQPVGKPDHAAPPKKPPRPGAPHLGSLASLNSPVDSYNEGVKIKPQEISPPPTANLDRSNDKVYENVTGLVKAVIEMSSKIQPAPPEEYVPMVKEVGLALRTLLATVDESLPVLPASTHREIEMAQKLLNSDLAELINKMKLAQQYVMTSLQQEYKKQMLTAAHALAVDAKNLLDVIDQARLKMISQSRPH
# Variants of: B1
# Conditions: with src_chick SRC
row,Variant,effect of a mutation on the interaction
1,Y397F,disrupting interaction

# Variants of: B1
# Conditions: with Src
row,Variant,effect of a mutation on the interaction
1,Y397F,decreasing interaction
